Test results published in patent US20110229406A1.

Molecular target: HER-3 (human, on cells) (human) (UniProt P21860)
Assay: indirect FACS Scatchard analysis on cells

Kd: 13.8 nM
Substance: U1-46 (antibody)
